Source: patent publication US11098085B2, “Use of a HIV derived accessory protein for the reactivation of latent HIV” (Janssen Sciences Ireland Unlimited Company, priority 2014, dated 2021)

How the values were obtained:
HIV LTR [1] = assay: HIV LTR transactivation by Tat C-terminal deletion mutants (triple plasmid transfection, Dual-Glo luciferase); assay type: cell-based; details: HEK293 cells, 24 h post transfection, full length Tat72 exon-1 set to 100%, mean (standard deviation)
Protocol: Activity is expressed in % with respect to the activity achieved by full length Tat72 exon-1 set to 100%. Shown data are mean values [n 4] with indicated (standard deviation).
Tat-mediated transactivation was determined by triple plasmid transfection of HEK293 cells with pEF-T, a Tat expression plasmid, LTR-FLuc, a HIV LTR-controlled firefly luciferase reporter plasmid and pEF1-RLuc, a EF1α promoter driven Renilla luciferase reporter plasmid. Luciferase reporter activities were assessed 24 h post transfection using the Dual-Glo luciferase assay [Promega]. The measured HIV LTR luciferase data were normalized by Renilla luciferase data retrieved from the pEF1-RLuc plasmid. LTR activity is expressed as percentage of wild type exon-1 Tat72 activity.

latent HIV = assay: Ex vivo activation of latent HIV from primary CD4+ T cells of HIV-infected individuals (gag RNA QPCR); assay type: cell-based, HIV-1; details: for % Activity (PHA): PHA set to 100%; for % Activity (PMA): PMA set to 100%
Protocol: Activation of latent HIV from primary CD4^+ T cells by overnight incubation with different Tat proteins. Indicated numbers represent HIV activation in percentage to reference compounds PMA and PHA set to 100%. The shown % increase compared to PMA/PHA is statistically significant (p<0.01).
CD4^+ T cells were isolated from 200 ml whole blood using CD4 microbeads (Miltenyi Biotec) according to manufacturer's protocol. Blood originates from HIV-infected individuals under long-term HAART with undetectable plasma virus. Ten to twenty replicates of cell pools plated at 1×10^6 CD4^+ T cells/well were incubated overnight with compounds or mock controls (DMSO/PBS). Total RNA was isolated from each replicate using the Magmax 96 Total RNA isolation kit (Ambion) following the manufacturer's protocol. Duplicate cDNA reactions were performed on each RNA replicate using SuperScript III First-Strand Synthesis kit (Invitrogen) according to the manufacturer's protocol. Quantitative real-time PCR (QPCR) was conducted on each cDNA applying gag-specific primers and the nucleic acid detection dye Sybr Green I [Invitrogen]. Standard curves were generated using cDNA synthesized from in vitro transcribed RNA. The detection limit of the QPCR assay was determined to be within 1-10 copies/reaction. Cycle threshold (ct) values 40 were excluded from the analysis. The Wilcoxon rank sum test was used to calculate the statistical significance of the relative HIV-1 gag RNA copy number between different conditions.

MT4-LTR-GFP cells = assay: Titration of tat protein variants on latent HIV LTR-GFP reporter cell line (flow cytometry); assay type: cell-based; parameters: unit not given here; details: overnight
Protocol: MT4-LTR-GFP cells were incubated overnight with different Tat variants at the indicated concentration [μg/ml]. LTR activation was determined by flow cytometry.

HIV LTR [2] = assay: HIV LTR activation by T66 fusion proteins (triple plasmid transfection of HEK293 cells, Dual-Glo luciferase); assay type: cell-based
Protocol: Triple plasmid transfection of HEK293 cells with pEF-T (Tat expression plasmid), LTR-FLuc (HIV LTR-controlled firefly luciferase reporter plasmid) and pEF1-RLuc (EF1α promoter driven Renilla luciferase reporter plasmid). Luciferase reporter activities were assessed 24 h post transfection using the Dual-Glo luciferase assay [Promega]. The measured HIV LTR luciferase data were normalized by Renilla luciferase data collected from the co-transfected pEF1-RLuc signal. LTR activation is either expressed as fold increase over cell control or as percentage of T66 activity.

With “1-57: first 57 N-terminal amino acids of wild-type tat, SEQ ID No 1; minimal reactivation domain (MEPVDPRLEPWKHPGSQPKTACTNCYCKKCCFHCQVCFMTKALGISYGRKKRRQRRR; Human immunodeficiency virus 1) [Tat 1-57]” the “% Tat72 activity” value (HIV LTR [1]) was 40.2 (±2.3) %.

For “T60: first 60 N-terminal amino acids of wild-type tat, SEQ ID No 2 (MEPVDPRLEPWKHPGSQPKTACTNCYCKKCCFHCQVCFMTKALGISYGRKKRRQRRRAHQ; Human immunodeficiency virus 1) [Tat T60]”, the “% Activity (PHA)” value (latent HIV; Donor 1, overnight incubation) was 328%, the “% Activity (PMA)” value (latent HIV; Donor 1, overnight incubation) was 405% and the “% Activity (PHA)” value (latent HIV; Donor 3, overnight incubation) was 196%. For the same molecule, the “% Activity (PMA)” value (latent HIV; Donor 3, overnight incubation) was 213%, the “% Activity (PHA)” value (latent HIV; Donor 5, overnight incubation) was “ND/254%” and the “% Tat72 activity” value (HIV LTR [1]) was 77.2 (±10.8) %. The LTR activation (MT4-LTR-GFP cells; Tat 30 μg/ml) was 28.5, the LTR activation (MT4-LTR-GFP cells; Tat 40 μg/ml) was 33.4 and the LTR activation (MT4-LTR-GFP cells; Tat 50 μg/ml) was 87.0. It also gave an LTR activation (MT4-LTR-GFP cells; Tat 60 μg/ml) of 92.1, an LTR activation (MT4-LTR-GFP cells; Tat 70 μg/ml) of 95.2 and an LTR activation (MT4-LTR-GFP cells; Tat 80 μg/ml) of 95.8. The LTR activation (MT4-LTR-GFP cells; Tat 100 μg/ml) was 93.3.

B1: T72: full length exon 1 Tat [1-72 aa], contains all domains essential for trans-activation (protein, UniProt P04608 1-72, looked up, fragment)
chain: MEPVDPRLEPWKHPGSQPKTACTNCYCKKCCFHCQVCFITKALGISYGRKKRRQRRRAHQNSQTHQASLSKQ
In the case of B1, the LTR activation (MT4-LTR-GFP cells; Tat 30 μg/ml) is reported as 18.6, the LTR activation (MT4-LTR-GFP cells; Tat 40 μg/ml) is reported as 47.2 and the LTR activation (MT4-LTR-GFP cells; Tat 50 μg/ml) is reported as 60.4. The LTR activation (MT4-LTR-GFP cells; Tat 60 μg/ml) was 76.3, the LTR activation (MT4-LTR-GFP cells; Tat 70 μg/ml) was 88.8 and the LTR activation (MT4-LTR-GFP cells; Tat 80 μg/ml) was 93.8. The LTR activation (MT4-LTR-GFP cells; Tat 100 μg/ml) was 93.7.

B2: T66 (protein)
chain: MEPVDPRLEPWKHPGSQPKTACTNCYCKKCCFHCQVCFMTKALGISYGRKKRRQRRRAHQNSQTHQ
modifications: Human immunodeficiency virus 1
B2 was tested, and the “% Activity (PHA)” value (latent HIV; Donor 1, overnight incubation) was 680%, the “% Activity (PMA)” value (latent HIV; Donor 1, overnight incubation) was 838% and the “% Activity (PHA)” value (latent HIV; Donor 2, overnight incubation) was 986%. For the same molecule, the “% Activity (PHA)” value (latent HIV; Donor 3, overnight incubation) was 487%, the “% Activity (PMA)” value (latent HIV; Donor 3, overnight incubation) was 530% and the “% Activity (PHA)” value (latent HIV; Donor 4, overnight incubation) was “ND/479%”. For the same molecule, the “% Activity (PHA)” value (latent HIV; Donor 5, overnight incubation) was “ND/636%”, the “HIV activation ex vivo compared with reference compounds” value (latent HIV; patient-derived latently infected CD4 cells, versus PHA, PMA and SAHA) was “exceeded by far the reactivation achieved by reference compounds” and the “% Tat72 activity” value (HIV LTR [1]) was 92.2 (±12.7) %. The RLUC (HIV LTR [2]; EF1α promoter driven Renilla luciferase (normalisation signal), HEK293, 24 h post transfection) was 267, the FLUC (HIV LTR [2]; HIV LTR-controlled firefly luciferase, HEK293, 24 h post transfection) was 15437 and the FLUCnorm (HIV LTR [2]; firefly luciferase normalized by Renilla luciferase) was 37049. For the same molecule, the Fold (HIV LTR [2]; fold increase over cell control) was 26, the “% T66” value (HIV LTR [2]; percentage of T66 activity) was 100% and the LTR activation (MT4-LTR-GFP cells; Tat 30 μg/ml) was 45.7. For the same molecule, the LTR activation (MT4-LTR-GFP cells; Tat 40 μg/ml) was 53.8, the LTR activation (MT4-LTR-GFP cells; Tat 50 μg/ml) was 87.0 and the LTR activation (MT4-LTR-GFP cells; Tat 60 μg/ml) was 88.7. For the same molecule, the LTR activation (MT4-LTR-GFP cells; Tat 70 μg/ml) was 87.6, the LTR activation (MT4-LTR-GFP cells; Tat 80 μg/ml) was 93.9 and the LTR activation (MT4-LTR-GFP cells; Tat 100 μg/ml) was 94.5.

B3: T86: Tat protein T86; full length tat protein is 86-101 aa (protein, UniProt P04608 1-86, looked up)
Protein Tat: MEPVDPRLEPWKHPGSQPKTACTNCYCKKCCFHCQVCFITKALGISYGRKKRRQRRRAHQNSQTHQASLSKQPTSQPRGDPTGPKE
In the case of B3, the “% Activity (PHA)” value (latent HIV; Donor 4, overnight incubation) is reported as “ND/436%” and the “% Activity (PHA)” value (latent HIV; Donor 5, overnight incubation) is reported as “ND/408%”.
